The values that follow come from article PMC10968383 (Bioengineering, 2024).

Assay [1] has as its target T1, full-length PrPc displayed on 293T cells (293T-PrPc) (Homo sapiens (Human)., UniProt P04156).
In the next assay the target is PrPc-35aa (Homo sapiens (Human).). Nature of the assay: BLI. The conditions noted are these: both partners purified.
Assay [2] deals with T1, full-length PrPc displayed on 293T …. The experiment in a line: Western blotting. The conditions noted are these: one partner purified. On the technique in general: Immunoblotting shows a protein as a band on a membrane.

B1: HAb 6b (antibody, V domains shown)
VH: EVQLVQSGAEVKKPGATVKMSCKASGYTFTDYYMKWVKQAPGKGLEWIGDINPNNGDTFYNEKFQGRATLTVDKSTNTAYMELSSLRSEDTAVYYCAKPGRTYWGQGTLVTVS
VL: DIVLTQSPDSLAVSLGERVTMSCKSSQSLLDSGNQKNYLVWYQQKPGQPPKLLIYGASTRESGVPDRFSGSGSGTDFTLTISSVQAEDVAVYYCQNDHSYPLTFGAGTKLELK
Take B1: the binding result in assay [1] is “binds”.

B2: HAb 6c (antibody, V domains shown)
VH: EVQLVQSGAEVKKPGATVKISCKASGYTFTDYYMKWVQQAPGKGLEWMGLVNPNNGDTFYNEKFQGRVTITVDKSTNTAYMELSSLRSEDTAVYYCATPGRTYWGQGTLVTVS
VL: DIVLTQSPDSLAVSLGERATISCKSSQSLLDSGNQKNYLVWYQQKPGQPPKLLIYGASTRESGVPDRFSGSGSGTDFTLTISSLQAEDVAVYYCQNDHSYPLTFGAGTKLELK
Turning to B2, the binding result in assay [1] is recorded as “binds”.

B3: Clone 6 (antibody, V domains shown)
VH: EVQLQQSGPELVKPGASVKMSCKASGYTFTDYYMKWVKQSHGKSLEWIGDINPNNGDTFYNQKFKGKATLTVDKSSNTAYMQLNSLTSEDSAVYYCAKPGRTYWGQGTLVTVS
VL: DIVLTQSPSSLSVSAGEKVTMSCKSSQSLLDSGNQKNYLVWYQQKPGQPPKLLIYGASTRESGVPDRFTGSGSGTDFTLTISSVQPEDLAVYYCQNDHSYPLTFGAGTKLELK
notes: also called murine anti-PrPc antibody Clone 6; full-length Clone 6 antibody; source: 293F cells, purified with protein A column
Broadly, the Kd is a measure of binding affinity in units of concentration. A high value points to weaker binding. On to B3, for which the Kd with PrPc-35aa stood at 0.314 nM.

B4: 4AA-m (antibody, V domains shown)
VH: EVQLVQSGAEVKKPGDTVKMSCKASGYTFTDYYMKWVKQAPGKAPGKSLEWIGDINPNNGDTFYNQKFQGRATLTVDKSSNTAYMELSSLRSEDTAVYYCVKPGRTYWGQGTLVTVS
VL: DIVLTQSPDSLAVSLGERVTMSCKSSQSLLDSGNQKNYLVWYQQKPGQPPKLLIYGASTRESGVPDRFTGSGSGTDFTLTISSVQAEDVAVYYCQNDHSYPLTFGAGTKLELK
notes: also called recombinant 4AA-m; source: 293F cells, purified with protein A column (said of the antibodies in general)
Consider B4, for which, in assay [2], the “Western blot signal on the 5 μg lysate, fold of that with 3F4” value was 3 fold and the “Western blot signal on the 5 μg lysate, fold of that with 8H4” value was 9 fold.

B5: HAb 6 (antibody, V domains shown)
VH: EVQLVQSGAEVKKPGATVKMSCKASGYTFTDYYMKWVKQAPGKSLEWIGDINPNNGDTFYNQKFQGRATLTVDKSSNTAYMELSSLRSEDTAVYYCAKPGRTYWGQGTLVTVS
VL: DIVLTQSPDSLAVSLGERVTMSCKSSQSLLDSGNQKNYLVWYQQKPGQPPKLLIYGASTRESGVPDRFTGSGSGTDFTLTISSVQAEDVAVYYCQNDHSYPLTFGAGTKLELK
notes: IgG1; also called humanized antibody HAb 6; wild-type antibody; source: 293F cells, purified with protein A column
On to B5, for which the Kd in the assay with PrPc-35aa came out at 2.92 nM.

B6: 4AA (antibody, V domains shown)
VH: EVQLVQSGAEVKKPGDTVKMSCKASGYTFTDYYMKWVKQAPGKAPGKSLEWIGDINPNNGDTFYNQKFQGRATLTVDKSSNTAYMELSSLRSEDTAVYYCVKPGRTYWGQGTLVTVS
VL: DIVLTQSPDSLAVSLGERVTMSCKSSQSLLDSGNQKNYLVWYQQKPGQPPKLLIYGASTRESGVPDRFTGSGSGTDFTLTISSVQAEDVAVYYCQNDHSYPLTFGAGTKLELK
notes: IgG1
As for B6, in the assay with PrPc-35aa, the Kd amounted to 0.281 nM.
